# B1: Lysozyme C, P61626 (parent)
# chain: MKALIVLGLVLLSVTVQGKVFERCELARTLKRLGMDGYRGISLANWMCLAKWESGYNTRATNYNAGDRSTDYGIFQINSRYWCNDGKTPGAVNACHLSCSALLQDNIADAVACAKRVVRDPQGIRAWVAWRNRCQNRDVRQYVQGCGV
# Variants of: B1
# Settings: Homo sapiens; pH 2.67; Thermal; DSC; glycine 0.05 M; reversible: yes; structure 1LZ1; whole UniProt chain shown
Variant,Tm,heat capacity change of unfolding,unfolding enthalpy (calorimetric),unfolding enthalpy (van 't Hoff)
MKALIVLGLVLLSVTVQGKVFERCELARTLKRLGMDGYRGISLANWMCLAKWESGYNTRATNYNAGDRSTDYGTFQINSRYWCNDGKTPGAVNACHLSCSALLQDNIADAVACAKRVVRDPQGIRAWVAWRNRCQNRDVRQYVQGCGV [I74T],51.8 °C,1 kcal/mol/K,87.8 kcal/mol,90.9 kcal/mol

# Same assay, conditions: Homo sapiens; pH 2.7; 64.9 °C; Thermal; DSC; glycine 0.05 M; reversible: yes; structure 1LZ1; whole UniProt chain shown
Variant,ddG of mutation (higher = less stable),heat capacity change of unfolding
MKALIVLGLVLLSVTVQGKVFERCELARTLKRLGMDGYRGISLANWMCLAKWESGYNTRATNYNAGDRSTDYGTFQINSRYWCNDGKTPGAVNACHLSCSALLQDNIADAVACAKRVVRDPQGIRAWVAWRNRCQNRDVRQYVQGCGV [I74T],3.64 kcal/mol,1.24 kcal/mol/K

# Same assay, conditions: Homo sapiens; pH 2.7; Thermal; DSC; glycine 0.05 M; reversible: yes; structure 1LZ1; whole UniProt chain shown
Variant,Tm,"change of melting temperature, mutant - wild type (higher = more stable)",heat capacity change of unfolding,unfolding enthalpy (calorimetric),unfolding enthalpy (van 't Hoff)
MKALIVLGLVLLSVTVQGKVFERCELARTLKRLGMDGYRGISLANWMCLAKWESGYNTRATNYNAGDRSTDYGTFQINSRYWCNDGKTPGAVNACHLSCSALLQDNIADAVACAKRVVRDPQGIRAWVAWRNRCQNRDVRQYVQGCGV [I74T],52.4 °C,-12.5 °C,1.24 kcal/mol/K,102 kcal/mol,108 kcal/mol

# Same assay, conditions: Homo sapiens; pH 2.98; Thermal; DSC; glycine 0.05 M; reversible: yes; structure 1LZ1; whole UniProt chain shown
Variant,Tm,heat capacity change of unfolding,unfolding enthalpy (calorimetric),unfolding enthalpy (van 't Hoff)
MKALIVLGLVLLSVTVQGKVFERCELARTLKRLGMDGYRGISLANWMCLAKWESGYNTRATNYNAGDRSTDYGTFQINSRYWCNDGKTPGAVNACHLSCSALLQDNIADAVACAKRVVRDPQGIRAWVAWRNRCQNRDVRQYVQGCGV [I74T],58 °C,1.2 kcal/mol/K,93.3 kcal/mol,102 kcal/mol

# Same assay, conditions: Homo sapiens; pH 3.11; Thermal; DSC; glycine 0.05 M; reversible: yes; structure 1LZ1; whole UniProt chain shown
Variant,Tm,heat capacity change of unfolding,unfolding enthalpy (calorimetric),unfolding enthalpy (van 't Hoff)
MKALIVLGLVLLSVTVQGKVFERCELARTLKRLGMDGYRGISLANWMCLAKWESGYNTRATNYNAGDRSTDYGTFQINSRYWCNDGKTPGAVNACHLSCSALLQDNIADAVACAKRVVRDPQGIRAWVAWRNRCQNRDVRQYVQGCGV [I74T],60.5 °C,1.15 kcal/mol/K,97.6 kcal/mol,103 kcal/mol

# Reference: FireProtDB (doi:10.1093/oxfordjournals.jbchem.a021544)
